Source: the supplement of paper PMC6757056
± gives the standard deviation of the averaged measurements.

B1: library; a variant is named by its letters at N, in order (parent)
chain: GCUGUCACCGAGAAACUGUGAAGUAUAUCUUAAACCUGGGCACUUAAAAGAUAUAUGGAGUUAGUAGUGCAACCUGCUCGGUCUGAUGAGUCCNNNNNNGGACGAAACAGC

How the values were obtained:
[1] = variants of: B1; assay: FACS-Seq fitted mean relative fluorescence mCherry/BFP without ligand (log10 relative fluorescence); HEK293T; ligand: cyclic di-GMP (c-di-GMP-II aptamer); higher = higher reporter protein expression; conditions: ligand present: no
Protocol: (§1)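 Hammerhead (sTRSV) ribozyme switch libraries with a ligand aptamer grafted on stem I and a randomized N4-6 loop II, cloned into the 3' UTR of mCherry and transiently transfected into HEK293T cells; RNA-Seq 72 h post transfection with ligand added 1 h before transfection; RNA read count / plasmid DNA read count normalized to the non-cleaving sTRSVctl (x100), log10; sequences with >100 DNA reads. FACS-Seq: lentiviral library sorted into 6 bins after 48 h ligand, log-normal fit mean of mCherry/BFP scaled to controls. Printed sequences are partial switch sequences.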

[2] = variants of: B1; assay: normalized RNA/DNA level without ligand (relative to sTRSVctl = 100) (log10 (% of sTRSVctl)); HEK293T; ligand: cyclic di-GMP (c-di-GMP-II aptamer); higher = less ribozyme self-cleavage, higher mRNA level; conditions: reporter: mCherry (pCS4076), ligand present: no
Protocol: as §1

[3] = variants of: B1; assay: FACS-Seq fitted mean relative fluorescence mCherry/BFP with ligand (log10 relative fluorescence); HEK293T; ligand: cyclic di-GMP (c-di-GMP-II aptamer); ligand concentration (+) FACS-Seq: 1 mM; higher = higher reporter protein expression; conditions: ligand present: yes
Protocol: as §1

[4] = variants of: B1; assay: normalized RNA/DNA level with ligand (relative to sTRSVctl = 100) (log10 (% of sTRSVctl)); HEK293T; ligand: cyclic di-GMP (c-di-GMP-II aptamer); ligand concentration (+) RNA-Seq: 1 mM; higher = less ribozyme self-cleavage, higher mRNA level; conditions: reporter: mCherry (pCS4076), ligand present: yes
Protocol: as §1

Row | Variant | FACS-Seq fitted mean (log10) [1] | normalized RNA/DNA level without ligand (log10) [2] | FACS-Seq fitted mean (log10) [3] | normalized RNA/DNA level with ligand (log10) [4]
1 | CGUCGA | -0.179 ± 0.073 | 1.58 ± 0.049 | 0.0661 ± 0.0086 | 1.77 ± 0.093
2 | CCGACA | -0.323 ± 0.017 | 1.56 ± 0.068 | -0.142 ± 0.068 | 1.74 ± 0.11
3 | CUGAUA | -0.362 ± 0.04 | 1.27 ± 0.11 | -0.182 ± 0.1 | 1.5 ± 0.1
4 | AACAGU | -1.23 ± 0.038 | 1.57 ± 0.076 | -1.08 ± 0.027 | 1.76 ± 0.063
5 | CGGGUC | -0.589 ± 0.12 | 1.81 ± 0.032 | -0.527 ± 0.034 | 1.9 ± 0.057
6 | UCGUAC | 0.087 ± 0.015 | 1.653 ± 0.01 | 0.277 ± 0.023 | 1.81 ± 0.14
7 | GUAUCA | -0.201 ± 0.17 | 1.62 ± 0.02 | 0.0998 ± 0.097 | 1.78 ± 0.094
8 | CCUGUA | -0.428 ± 0.0045 | 1.54 ± 0.15 | -0.0267 ± 0.0096 | 1.73 ± 0.077
9 | UAGUGA | -0.51 ± 0.069 | 1.626 ± 0.0075 | -0.218 ± 0.016 | 1.77 ± 0.15
10 | CAAUCC | -0.487 ± 0.028 | 1.75 ± 0.049 | -0.368 ± 0.016 | 1.87 ± 0.11
11 | UACAGA | -0.198 ± 0.37 | 1.61 ± 0.052 | -0.101 ± 0.13 | 1.75 ± 0.14
12 | ACCUAA | -0.281 ± 0.029 | 1.57 ± 0.053 | 0.102 ± 0.075 | 1.76 ± 0.056
13 | CUGUUA | -0.289 ± 0.046 | 1.33 ± 0.091 | 0.158 ± 0.13 | 1.58 ± 0.084
14 | AUAUAG | -0.0556 ± 0.15 | 1.61 ± 0.046 | 0.255 ± 0.02 | 1.74 ± 0.074
15 | UAGAAU | -0.456 ± 0.092 | 1.56 ± 0.036 | -0.193 ± 0.12 | 1.75 ± 0.13
16 | GUAACG | -0.145 ± 0.033 | 1.678 ± 0.014 | 0.124 ± 0.056 | 1.78 ± 0.14
17 | GUUGAG | -0.16 ± 0.072 | 1.55 ± 0.081 | 0.0985 ± 0.045 | 1.72 ± 0.11
18 | UUUCUU | 0.255 ± 0.19 | 1.773 ± 0.014 | 0.428 ± 0.021 | 1.89 ± 0.066
